# Laboratory results as given in publication PMC4546627, “Biophysical Characterization of Essential Phosphorylation at the Flexible C-Terminal Region of C-Raf with 14-3-3ζ Protein” (PLoS ONE, 2015).
# Entries after “also recorded” stand apart in the source; their conditions may differ. Where a SMILES comes first, the peptide text is derived from it. Where no end group is shown, it is not given here. [ ]: non-standard residue; d: D form. pS = N[C@@H](COP(=O)(O)O)C(=O)O
# Experiments:
# [1] = molecular target: C-Raf pS259 peptide (Homo sapiens) (UniProt P04049); settings: cited from earlier work
# [2] = molecular target: C-Raf pS233 peptide (Homo sapiens) (UniProt P04049); settings: cited from earlier work
# [3] = molecular target: C-Raf pS233/pS259 peptide (Homo sapiens) (UniProt P04049); settings: cited from earlier work
# human 14-3-3ζ protein [4] = molecular target: T1, human 14-3-3ζ protein (Homo sapiens, UniProt P63104); experiment: Isothermal titration calorimetry (ITC) of peptide binding to 14-3-3ζ
# T1 construct: hexa-histidine (His6, from pQE30 vector) (N); made in house; host or cells: E. coli M15
# T1 sequence (P63104 1-245): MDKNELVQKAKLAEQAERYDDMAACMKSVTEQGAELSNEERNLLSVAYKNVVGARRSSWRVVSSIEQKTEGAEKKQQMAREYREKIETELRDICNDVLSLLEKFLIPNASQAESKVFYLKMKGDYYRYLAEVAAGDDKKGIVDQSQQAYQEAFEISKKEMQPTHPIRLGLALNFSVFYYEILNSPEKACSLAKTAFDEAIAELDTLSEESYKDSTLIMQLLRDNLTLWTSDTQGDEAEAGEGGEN
# Text: Human 14-3-3ζ full length sequence was PCR amplified using pcDNA3 14-3-3ζ as a template with forward primer (5´-[…]-3´) and reverse primer (5´-[…]-3´). The PCR amplified product was digested with BamH1 and Pst1 and cloned into pQE30 vector. This vector contains N-terminal hexa- histidine tag suitable for affinity purification. The cloned fragment was confirmed by automated DNA sequencer, Applied Biosystem 3130×I 96 capillary DNA Analyzer.
# E. coli M15 cells were transformed with this construct and grown at 37°C in LB medium containing ampicillin and kanamycin. The cells were grown till 0.6 (O.D.600nm) and the expression of the protein was induced with 0.5 mM IPTG for 3 hours. The cells were harvested and stored at -70°C. The cells were subsequently resuspended in lysis buffer (10 mM NaH2PO4, 100 mM NaCl, pH7.0, 1 mM PMSF (Sigma, St. Louis, MO), 1X Halt Protease inhibitor cocktail (ThermoFisher Scientific, Waltham, MA) and lysed by passing through the French press at 20,000 psi. Cell lysate was centrifuged at 20,000×g for 15 minutes at 4°C. The supernatant was collected and again centrifuged at 100,000×g for 1 hour. Cell homogenate was applied onto TALON affinity resin (Clontech, Mountain View, CA) pre-equilibrated with lysis buffer. Resin was washed with five volumes of lysis buffer containing 20 mM imidazole. Bound protein was eluted with 150 mM imidazole containing lysis buffer. Imidazole was then removed by dialysis; the buffer was exchanged with 10 mM NaH2PO4, 100 mM NaCl, pH 6.1 and the protein was concentrated in sucrose bed. Commercially synthesized and HPLC-purified (> 95%) KH16p and KH16 peptides were purchased from GL Biochem (Shanghai, China) and used as received.
# ITC technique was employed to study thermodynamics of KH16p and KH16 peptides interactions with 14-3-3ζ protein with the help of VP-ITC micro-calorimeter in high feedback mode. The peptides were dissolved in the same dialysis buffer of 14-3-3ζ protein (i.e., 10 mM Na2HPO4 buffer containing 100 mM NaCl, pH 6.1). Sample cell with 50 μM 14-3-3ζ protein was titrated against 1 mM peptide in a syringe with 300 rpm stirring speed with an initial delay of 60 sec. The cell temperature was kept at 298 K and 10 μcal/s of reference power as applied to maintain a flat baseline. A total of 17 injections of 1 mM KH16p/KH16 were performed, where the initial injection was of 0.4 μl and the final was 2.0 μl, while the remaining 15 injections were 2.5 μl each. Each injection was over a period of 0.8 sec with a spacing of 150 sec and filter time of 5 sec. An equivalent control experiment to subtract the heat of dilution of the peptides in buffer was performed (i.e., the same concentration of peptide was injected into the buffer solution keeping same experimental parameters). Results obtained were plotted using MicroCal Origin 7.0 software. In order to determine the thermodynamic parameters (i.e., association constant K A and enthalpy of reaction ΔH), the single-site binding model was used. Other thermodynamic parameters such as the free energy of binding (ΔG) and entropy (ΔS) were calculated using Eqs (2) and (3), respectively: ΔG=−RTlnKA (2) ΔG=ΔH−TΔS (3)
# human 14-3-3ζ protein [5] = molecular target: T1, human 14-3-3ζ protein; experiment: STD NMR with 14-3-3ζ; assay type: binding; settings: 1 mM peptide, 2 μM 14-3-3ζ (500:1), D2O, 10 mM Na2HPO4, 100 mM NaCl, pH 6.1, 288 K
# Description: Saturation transfer difference (STD) NMR experiments were carried out at 288 K using standard STD pulse sequences, with WATERGATE 3-9-19 water suppression method. Briefly, 1 mM of KH16p/KH16 peptide in 10 mM Na2HPO4 buffer (pH 6.1) with 100 mM NaCl was lyophilized and resuspended in an equal volume of D2O, and 2 μM 14-3-3ζ proteins was added to it. A train of 40 selective Gaussian-shaped pulses (49 ms each) with an interval period of 1 ms was used to saturate protein resonance for a total of 2 sec saturation time. During the STD NMR experiment, on- and off-resonance frequencies were set at -1 ppm and 40 ppm, respectively. Subtraction of off-resonance spectrum from the on-resonance spectra to yield signals appearing due to saturation transfer from protein to ligand was achieved using phase cycling. The one-dimensional STD spectra were acquired with 1024 scans with 16 dummy scans using a sweep width of 12 ppm. An exponential line broadening function of 3 Hz was applied to the spectral data before Fourier transformation. Similar STD experiments were performed on the peptide KH16p or KH16 in the absence of 14-3-3ζ protein as a control.
# 14-3-3ζ = molecular target: T2, 14-3-3ζ (Homo sapiens, UniProt P63104); experiment: 31P NMR
# T2 chain: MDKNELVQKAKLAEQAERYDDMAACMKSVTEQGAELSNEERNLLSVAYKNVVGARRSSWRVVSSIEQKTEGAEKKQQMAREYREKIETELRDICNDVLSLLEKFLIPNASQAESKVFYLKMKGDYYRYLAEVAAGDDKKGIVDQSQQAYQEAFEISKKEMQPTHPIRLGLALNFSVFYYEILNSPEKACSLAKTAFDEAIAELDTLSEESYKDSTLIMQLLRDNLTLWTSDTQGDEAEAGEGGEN
molecule,measurement,setting,value
14-3-3ζ (from UniProt P63104),Kd,[1],16.7 µM
same,Kd,[2],171 µM
same,Kd,[3],0.346 µM
CC[C@H](C)[C@H](NC(=O)[C@@H](N)CCCCN)C(=O)N[C@@H](CC(N)=O)C(=O)N[C@@H](CCCNC(=N)N)C(=O)N[C@@H](CO)C(=O)N[C@@H](C)C(=O)N[C@@H](COP(=O)(O)O)C(=O)N[C@@H](CCC(=O)O)C(=O)N1CCC[C@H]1C(=O)N[C@@H](CO)C(=O)N[C@@H](CC(C)C)C(=O)N[C@@H](Cc1c[nH]cn1)C(=O)N[C@@H](CCCNC(=N)N)C(=O)N[C@@H](C)C(=O)N[C@@H](C)C(=O)N[C@@H](Cc1c[nH]cn1)C(=O)O [KH16p] (H-KINRSA[pS]EPSLHRAAH-OH),Kd,human 14-3-3ζ protein [4],17.3 µM
"KH16: control peptide KH16 devoid of phosphorylation at S621 (C-Raf 615–630) (KINRSASEPSLHRAAH; UniProt P04049 615-630, looked up, fragment)",N (stoichiometry),"human 14-3-3ζ protein [4]; ITC, 50 μM 14-3-3ζ in cell, 1 mM peptide in syringe, 298 K, 10 mM Na2HPO4, 100 mM NaCl, pH 6.1, single-site binding model",1.89 ± 1.45 × 10^4
same,T∆S,"human 14-3-3ζ protein [4]; ITC, 298 K, pH 6.1",-411.24 kcal/mol
same,binding affinity (in words),"human 14-3-3ζ protein [4]; ITC, 298 K, pH 6.1",did not show any appreciable binding affinity; also recorded: relatively weak and the corresponding KD value is in the millimolar range
same,∆S,"human 14-3-3ζ protein [4]; ITC, 298 K, pH 6.1, calculated from ΔG=ΔH−TΔS",-1.38 × 10^3 cal mol^-1 deg^-1
same,∆G,"human 14-3-3ζ protein [4]; ITC, 298 K, pH 6.1, calculated from ΔG=−RTlnKA",-1.96 kcal/mol
same,STD NMR signals with 14-3-3ζ (in words),human 14-3-3ζ protein [5],did not show any peaks in both the aromatic and the aliphatic regions
KINRSA[pS]EPSLHRAAH [C-Raf KH16p phosphopeptide 615-630],Kd,14-3-3ζ,17.7 µM
